{"source": "patent US7910549", "target": "complete MN/CA IX protein (MN/CA IX+), from Vero cells infected with vaccinia virus carrying the complete coding region of MN/CA IX (human) (UniProt Q16790)", "assay": "cell-based or functional assay", "data": [{"substance": "monoclonal antibody M75 (MAb M75), secreted by hybridoma VU-M75, ATCC HB 11128", "values": [{"measurement": "cell attachment to purified MN/CA IX+ (fold dilution of ascites fluid)", "result": 1000}]}]}
